Data taken from paper PMC3595365 (Molecular cell, 2013).

Assays:
[1] = biological target: His6-NEDD8 (UniProt Q15843 1-76); experiment: BLI
[2] = biological target: His6-ubiquitin (UniProt P0CG48 1-76); experiment: BLI

His6-NEDD8, sequence (Q15843 1-76): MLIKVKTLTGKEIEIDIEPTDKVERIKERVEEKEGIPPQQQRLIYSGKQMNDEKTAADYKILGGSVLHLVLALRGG

- Kd [1]: 14 ± 3 µM
- Kd [2]: 17 ± 3 µM
Binder: RHKQEEQDRLLALQLQKEVDKEQM (domain or fragment, UniProt Q8IYW5 439-462, looked up) [GST-RNF168-MIU2 (439-462)]
